Results as given in US20170088624A1 (Janssen / Centocor, published 2017).

Key:
[1] = molecular target: T1, Full length human CD40 (huCD40) on cells (human, UniProt P25942 21-277); experiment: flow cytometry, human mature DCs
T1 construct: CD40 on human mature DCs, human B cells, Raji cells and HEK-Blue CD40L cells (stably expressing human CD40); also called TNFRSF5
Target sequence in this assay (P25942 21-277): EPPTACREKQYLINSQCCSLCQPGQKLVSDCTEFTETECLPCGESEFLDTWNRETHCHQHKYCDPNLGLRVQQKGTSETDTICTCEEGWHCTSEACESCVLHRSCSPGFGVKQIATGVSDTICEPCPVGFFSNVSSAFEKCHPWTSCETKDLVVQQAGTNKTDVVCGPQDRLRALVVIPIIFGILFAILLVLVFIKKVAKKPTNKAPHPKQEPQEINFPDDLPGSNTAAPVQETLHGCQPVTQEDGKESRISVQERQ

[2] = molecular target: T1, Full length human CD40 (huCD40) on cells; experiment: flow cytometry, human B cells; separate experiment
[3] = molecular target: T1, Full length human CD40 (huCD40) on cells; experiment: cell-based or functional assay
Target sequence in this assay (P25942 21-277): as above

[4] = molecular target: T1, Full length human CD40 (huCD40) on cells; experiment: flow cytometry, human DCs; separate experiment
[5] = molecular target: T1, Full length human CD40 (huCD40) on cells; experiment: flow cytometry, HEK-Blue CD40L cells; separate experiment
cyno CD40 (SPR analyte) [6] = molecular target: T2, cyno CD40 (SPR analyte) (Macaca fascicularis (cynomolgus), UniProt P25942 21-193 (human entry), limits assumed); experiment: SPR ProteOn XPR36, mAb captured by anti-human IgG Fc, cyno CD40 as analyte, 25 C; mean of n = 3 (SD 0.24E-09)
T2 construct: also called cCD40-ECD
T2 chain: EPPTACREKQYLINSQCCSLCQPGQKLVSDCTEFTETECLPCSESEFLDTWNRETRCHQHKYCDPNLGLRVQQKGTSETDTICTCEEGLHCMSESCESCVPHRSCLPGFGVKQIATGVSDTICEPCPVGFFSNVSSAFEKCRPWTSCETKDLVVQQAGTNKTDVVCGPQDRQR
Protocol: (§1) Affinity measurements were performed using Surface Plasmon Resonance (SPR) using a ProteOn XPR36 system (BioRad). […] Approximately 5000 RU (response units) of mAbs were immobilized. The kinetic experiments were performed at 25° C. in running buffer (DPBS+0.01% P20+100 μg/ml BSA). To perform kinetic experiments, 200 RU of mAbs were captured followed by injections of analytes (human or cyno CD40) at 5 concentrations (in a 4-fold serial dilution). The association phase was monitored for 3 minutes at 50 μL/min, then followed by 15 minutes of buffer flow (dissociation phase). The chip surface was regenerated with two 18 second pulses of 100 mM H₃PO₄ (Sigma, Cat#7961) at 100 μL/min.
(§2) The collected data were processed using ProteOn Manager software. First, the data was corrected for background using inter-spots. Then, double reference subtraction of the data was performed by using the buffer injection for analyte injections. The kinetic analysis of the data was performed using a Langmuir 1:1 binding model. The result for each mAb was reported in the format of Ka (On-rate), Kd (Off-rate) and KD (equilibrium dissociation constant).
(§3) The parameters reported in this table were obtained from a 1:1 Langmuir binding model for all samples. Affinity, KD=kd/ka.

[7] = molecular target: T1, Full length human CD40 (huCD40) on cells; experiment: flow cytometry, HEK-Blue CD40L cells
Target sequence in this assay (P25942 21-277): as the sequence (P25942 21-277) above

[8] = molecular target: T1, Full length human CD40 (huCD40) on cells; experiment: flow cytometry, HEK-Blue CD40L cells; remark: listed apart in the source
Target sequence in this assay (P25942 21-277): as the sequence (P25942 21-277) above

[9] = molecular target: T1, Full length human CD40 (huCD40) on cells; experiment: cell-based or functional assay; remark: listed apart in the source
human CD40 (SPR analyte) [10] = molecular target: T3, human CD40 (SPR analyte) (human, UniProt P25942 21-193); experiment: SPR ProteOn XPR36, mAb captured by anti-human IgG Fc, CD40 as analyte, 25 C; mean of n = 5 (SD 0.97E-03); did not fit well to 1:1 model
T3 construct: also called huCD40-ECD
Protocol: as §1, §2, §3

cyno CD40 (SPR analyte) [11] = molecular target: T2, cyno CD40 (SPR analyte); experiment: SPR ProteOn XPR36, mAb captured by anti-human IgG Fc, cyno CD40 as analyte, 25 C; mean of n = 3 (SD 1.02E+05)
Protocol: as §1, §2

[12] = molecular target: T1, Full length human CD40 (huCD40) on cells; experiment: flow cytometry, human DCs
Target sequence in this assay (P25942 21-277): as the sequence (P25942 21-277) above

human CD40 (SPR analyte) [13] = molecular target: T3, human CD40 (SPR analyte); experiment: SPR ProteOn XPR36, mAb captured by anti-human IgG Fc, CD40 as analyte, 25 C; mean of n = 5 (SD 1.51E-09); did not fit well to 1:1 model
Protocol: as §1, §2, §3

[14] = molecular target: T1, Full length human CD40 (huCD40) on cells; experiment: flow cytometry, human B cells
Target sequence in this assay (P25942 21-277): as the sequence (P25942 21-277) above

cyno CD40 (SPR analyte) [15] = molecular target: T2, cyno CD40 (SPR analyte); experiment: SPR ProteOn XPR36, mAb captured by anti-human IgG Fc, cyno CD40 as analyte, 25 C; mean of n = 3 (SD 0.07E-03)
Protocol: as §1, §2

human CD40 (SPR analyte) [16] = molecular target: T3, human CD40 (SPR analyte); experiment: SPR ProteOn XPR36, mAb captured by anti-human IgG Fc, CD40 as analyte, 25 C; mean of n = 5 (SD 1.83E+05); did not fit well to 1:1 model
Protocol: as §1, §2, §3

[17] = molecular target: T1, Full length human CD40 (huCD40) on cells; experiment: cell-based or functional assay; remark: listed apart in the source
[18] = molecular target: T1, Full length human CD40 (huCD40) on cells; experiment: flow cytometry, Raji cells
[19] = molecular target: T4, Macaca fascicularis (cyno) CD40 (cCD40) on cells (Macaca fascicularis (cynomolgus), UniProt P25942 21-277 (human entry)); experiment: flow cytometry, cyno mature DCs
T4 construct: CD40 on cyno mature DCs
T4 chain: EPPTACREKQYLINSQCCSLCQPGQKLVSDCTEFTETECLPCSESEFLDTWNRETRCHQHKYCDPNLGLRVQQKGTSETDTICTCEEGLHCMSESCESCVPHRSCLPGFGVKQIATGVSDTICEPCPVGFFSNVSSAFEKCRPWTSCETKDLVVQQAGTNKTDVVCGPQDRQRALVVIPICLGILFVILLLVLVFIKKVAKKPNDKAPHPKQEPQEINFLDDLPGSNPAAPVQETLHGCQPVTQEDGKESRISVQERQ

B1: C40M9 (antibody, human IgG1, lambda, V domains shown)
VH: QLQLQESGPGLVKPSEILSLTCTVSGGSISSSSYYWGWIRQPPGKGLEWIGNIYYRGDTYYSPSLKSRVTISVDTSKNQFSLKLNSVTAADTAVYYCAKGFRFDYWGQGTLVTVSS
VL: QSALTQPPSASGSPGQSVTISCTGTSSDVGGYNYVSWYQQHPGKAPKLMIYEVSKRPSGVPDRFSGSKSGNTASLTVSGLQAEDEADYYCSSYAGSNNLVFGGGTKLTVLG
[1]
  EC50: 123 ng/mL
[2]
  EC50: 19.1 ng/mL
[3]
  DC EC50, CD80 surface expression, with cross-linker: 27.7 ng/mL
  DC EC50, CD83 surface expression, with cross-linker: 39.8 ng/mL
  DC EC50, CD86 surface expression, with cross-linker: 103 ng/mL
  DC EC50, HLA-DR surface expression, with cross-linker: 79.7 ng/mL
[4]
  EC50: 46.2 ng/mL
[5]
  EC50: 615 ng/mL
Cyno CD40 (SPR analyte) [6]
  Kd: 1.42 nM
[7]
  EC50: 94.2 ng/mL
[8]
  EC50: 143 ng/mL
[9]
  EC50, Human B cells (CD83): 0.766 ng/mL
  EC50, Human B cells (CD83), separate experiment: 0.145 ng/mL
  EC50, Human DC (HLA-DR): 118 ng/mL
  EC50, Human DC (HLA-DR), separate experiment: 16.7 ng/mL
  EC50, agonistic activity on HEK-Blue™ CD40L cells (NF-κB/SEAP): 13.8 ng/mL
  EC50, agonistic activity on HEK-Blue™ CD40L cells (NF-κB/SEAP), separate experiment: 6.21 ng/mL
Human CD40 (SPR analyte) [10]
  koff: 0.00285 s⁻¹
Cyno CD40 (SPR analyte) [11]
  kon: 901000 M⁻¹ s⁻¹
[12]
  EC50: 152 ng/mL
Human CD40 (SPR analyte) [13]
  Kd: 4.09 nM
[14]
  EC50: 60.9 ng/mL
Cyno CD40 (SPR analyte) [15]
  koff: 0.00126 s⁻¹
Human CD40 (SPR analyte) [16]
  kon: 727000 M⁻¹ s⁻¹
[17]
  B cells EC50, CD23 surface expression, with cross-linker: 2.87 ng/mL
  B cells EC50, CD80 surface expression, with cross-linker: 13.1 ng/mL
  B cells EC50, CD83 surface expression, with cross-linker: 0.00668 ng/mL
  B cells EC50, CD86 surface expression, with cross-linker: 0.0109 ng/mL
  B cells EC50, HLA-DR surface expression, with cross-linker: 0.012 ng/mL
[18]
  EC50: 57.1 ng/mL
[19]
  EC50: 45.1 ng/mL
